Test results taken from US20200407462A1 (MINERVA BIOTECHNOLOGIES, published 2020).
Substitutions are numbered along the chain they refer to.

Experiments:
[1] = target: T1, N-10 peptide (N-10 PSMGFR); experiment: peptide binding, told in text
T1 construct: also called PSMGFR N-10
T1 peptide: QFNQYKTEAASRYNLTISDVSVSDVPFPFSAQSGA

[2] = target: T2, C-10 peptide (C-10 PSMGFR); experiment: binding to peptides (ELISA, FIG. 39)
T2 construct: also called PSMGFR C-10
T2 peptide: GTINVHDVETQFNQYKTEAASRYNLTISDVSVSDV
Method: (§1) All monoclonal antibodies were first selected based on their ability to bind to the immunizing peptide. To further elucidate the epitope within that peptide to which the antibody binds, antibodies were tested for their ability to bind to the PSMGFR peptide, the N−10 peptide or the C−10 peptide.

[3] = target: T3, PSMGFR peptide (Primary Sequence of the MUC1 Growth Factor Receptor); experiment: selection of clones on the immunizing peptide
T3 peptide: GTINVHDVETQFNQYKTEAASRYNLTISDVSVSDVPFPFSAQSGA

[4] = target: T1, N-10 peptide (N-10 PSMGFR); experiment: peptide binding, told in legend
[5] = target: T4, PSMGFR N+9/C-9 peptide; experiment: selection of clones on the immunizing peptide
T4 peptide: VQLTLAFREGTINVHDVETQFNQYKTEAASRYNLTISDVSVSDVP

[6] = target: T2, C-10 peptide (C-10 PSMGFR); experiment: ELISA on peptides
[7] = target: T5, PSMGFR N+20/C-27 peptide; experiment: selection of clones on the immunizing peptide
T5 construct: also called N+20/C-27 PSMGFR
T5 peptide: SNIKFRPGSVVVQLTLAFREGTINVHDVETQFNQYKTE

[8] = target: T1, N-10 peptide (N-10 PSMGFR); experiment: ELISA on peptides (FIG. 39)
Method: as §1

B1: 20A10 monoclonal anti-MUC1* antibody (antibody, V domains shown)
VH: EVMLVESGGGLVKPGGSLKLSCAASGFTFSTYAMSWIRQTPEKRLEWVASIGRAGSTYYSDSVKGRFTISRDNVRNILYLQMSSLRSEDTAMYYCARGPIYNDYDEFAYWGQGTLVTVSA
VL: NIMMTQSPSSLAVSAGEKVTMSCKSSQSVLYSSNQKNYLAWYQQKPGQSPKLLIYWASTRESGVPDRFTGSGSGTDFTLTISSVQAEDLAVYYCHQYLSSLTFGAGTKLELK
notes: Immunogen PSMGFR peptide; also called Antibody 20A10
binding result [1]: binds | binding result [2]: no binding | binding result [3]: binds

B2: 25E6 monoclonal anti-MUC1* antibody (antibody, V domains shown)
VH: EVQLVESGGDLVKPGGSLKLSCAASGFTFSSYGMSWVRQTPDKRLEWVATISNGGRHTFYPDSVKGRFTISRDNAKNTLYLQMSSLKSEDTAMYLCVRQTGTEGWFAYWGQGTLVTVSA
VL: not shown
notes: Immunogen PSMGFR peptide; also called Antibody 25E6
binding result [4]: binds | binding result [3]: binds

B3: 3C5 monoclonal anti-MUC1* antibody (antibody, V domains shown)
VH: QIQLVQSGPELKKPGETVKISCKASGYTFTNYGMNWVKQAPGKGLKWMGWINTYTGKPTYADDFKGRFAFSLETSASTAYLQINNLKNEDTATYFCARGGLDGYYGYWGQGTTLTVSS
VL: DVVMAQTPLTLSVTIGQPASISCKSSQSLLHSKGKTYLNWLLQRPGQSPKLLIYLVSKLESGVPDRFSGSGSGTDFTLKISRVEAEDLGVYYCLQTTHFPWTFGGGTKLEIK
notes: Immunogen PSMGFR N+9/C-9 peptide; also called Antibody 3C5
binding result [5]: binds

B4: 18G12 monoclonal anti-MUC1* antibody (antibody, V domains shown)
VH: QVQLQQSGAELVKPGASVKLSCKASGYTFTGYFLYWVKQRPGQGLEWIGGINPDNGGIDFNEKFRNKATLTVDKSSSTAYMQLSSLTSEDSAVYYCTLLIGNYWGQGTTLTVSS
VL: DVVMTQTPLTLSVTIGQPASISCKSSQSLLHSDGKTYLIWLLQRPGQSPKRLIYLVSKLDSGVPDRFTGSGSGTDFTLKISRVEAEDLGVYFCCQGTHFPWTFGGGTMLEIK
notes: Immunogen PSMGFR peptide; also called Antibody 18G12
binding result [6]: binds | binding result [3]: binds

B5: 28F9 monoclonal anti-MUC1* antibody (antibody, V domains shown)
VH: B4 VH with S7P, K13Q, Q43H, N52H, D54S, G57D, I58T, R65K, K74I, N102V
VL: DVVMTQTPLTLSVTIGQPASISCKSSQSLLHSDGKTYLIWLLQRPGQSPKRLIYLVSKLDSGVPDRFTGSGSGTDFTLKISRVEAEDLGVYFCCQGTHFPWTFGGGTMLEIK
notes: Anti-PSMGFR antibody; also called Antibody 28F9
binding result [6]: binds | binding result [3]: binds

B6: 31A1 monoclonal anti-MUC1* antibody (antibody, V domains shown)
VH: QVQLQQSGAELAKPGASVKMSCKASGYTFTSYWMHWVKQRPGQGLEWIGYINPSTGYTEYNQKFKDKATLTADKSSSTAYMQLSSLTSEDSAVYYCARAYIDYWGQGTTLTVSS
VL: DVLMTQTPLSLPVSLGDQASFSCRSSQSIVHSNGNTYLEWYLQKPGQSPKLLIYKVSNRFSGVPDRFSGSGSGTDFTLKINRVEAEDLGVYYCFQVSHFPWTFGGGTKLEIK
notes: Immunogen PSMGFR N+20/C-27 peptide; also called Antibody 31A1
binding result [7]: binds

B7: 39H5 monoclonal anti-MUC1* antibody (antibody, V domains shown)
VH: QIQLVQSGPELKKPGETVKISCKASGYTFTNYGMNWVKQAPGKGLKWMGWINTYTGEPTYVGDFKGRFAFSLETSASTAYLQINNLKNEDTATYFCVRGIHGYVDYWGQGTTLTVSS
VL: B6 VL with F21I, S32R, N81S, V96G, F99L
notes: Immunogen PSMGFR N+9/C-9 peptide; also called Antibody 39H5
binding result [5]: binds

B8: 18B4 monoclonal anti-MUC1* antibody (antibody, V domains shown)
VH: EVKLEESGGGLVQPGGSMKLSCAASGFTFNDAWMDWVRQSPEKGLEWVAEIRSTANIHTTYYAESVQGRFTISRDDSKSSVYLQMNSLRAEDTGIYYCTPLLYGFAYWGQGTLVTVSA
VL: DVVMTQSPLSLPVSLGDQASISCRTSQSLVHSNGNTYLHWHLQKPGQSPKVLIYKVSSRFSGVPDRFSGSGSGTDFTLKISRVEAEDLGVYFCSQNTHVPYTFGGGTKLEIK
notes: Immunogen PSMGFR peptide; also called Antibody 18B4
binding result [6]: binds | binding result [8]: no binding | binding result [3]: binds

B9: 1E4 monoclonal anti-MUC1* antibody (antibody, V domains shown)
VH: QVQLQQSGAELVRPGSSVKISCKASGYAFSTYWMNWVKQRPGQGLEWIGQIYPGDSDTNYNGKFKGKATLTADKSSNTAYMQLSSLTSEDSAVFFCARGNHASMDYWGQGTSVTVSS
VL: B8 VL with S7T, T25S, H41Y, V51L, S58N, N96K, Y101W
notes: Immunogen PSMGFR N+20/C-27 peptide; also called Antibody 1E4
binding result [7]: binds

B10: 29H1 monoclonal anti-MUC1* antibody (antibody, V domains shown)
VH: B8 VH with N30S, T54K, N56T, I57N, T59A, Q67K
VL: DVVMTQTPLSLPVSLGDQASISCRSGQSLVHSNGHTYLHWYLQKPGQSPRLLIYKVSNRFSGVPDRFSGSGSRADFTLKISRVEAEDLGVYFCSQTTHVPWTFGGGTKLEIK
notes: Immunogen PSMGFR N+20/C-27 peptide; also called Antibody 29H1
binding result [7]: binds

B11: 32C1 monoclonal anti-MUC1* antibody (antibody, V domains shown)
VH: EVKLEESGGGLVQSGGSMKLSCVASGFTFSNYWMNWVRQSPEKGLEWVAEIRLKSNNYAIHYAESVKGRFTISRDDSKSSVYLQMNNLRAEDTGIYYCTRVPGLDAYWGQGTLVTVSA
VL: B8 VL with S7T, T25S, H41Y, V51L, S58N, R82S, N96I, K108N
notes: Immunogen PSMGFR N+20/C-27 peptide; also called Antibody 32C1
binding result [7]: binds
